Measured values published in patent US20220356229A1 (published 2022).
Substitutions are numbered along the chain they refer to.

B1: antibody 348 (antibody, V domains shown)
VH: QVQLVQSGSELKKPGASVKVSCKASGYTFTSYAMNWVRQAPGQGLEWMGWINTNTGNPTYAQGFTGRFVFSLDTSVSTAYLQISSLKAEDTAVYYCARDHELPNTSSWFGHFEYWGQGTLVTVSS
VL: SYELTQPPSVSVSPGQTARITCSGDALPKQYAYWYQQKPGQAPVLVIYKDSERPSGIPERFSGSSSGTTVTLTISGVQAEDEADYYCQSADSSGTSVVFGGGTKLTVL
B2: antibody 372 (antibody, V domains shown)
VH: QVQLVESGGGVVQPGRSLRLSCAASGFTFSSYAMHWVRQAPGKGLEWVAVISYDGSNKYYADSVKGRFTISRDNSKNTLYLQMNSLRAEDTAVYYCARDLGTSALLWFGELFLNYGMDVWGQGTTVTVSS
VL: QSALTQPRSVSGSPGQSVTISCTGTSSDVGGYNYVSWYQQHPGKAPKLMIYDVSKRPSGVPDRFSGSKSGNTASLTISGLQAEDEADYYCCSYAGSPILVFGGGTKLTVL
B3: antibody 329 (antibody, V domains shown)
VH: EVQLVESGGGLVQPGGSLRLSCAASGFTFSSYWMHWVRQAPGKGLVWVSRINSDGSSTSYADSVKGRFTISRDNAKNTLYLQMNSLRAEDTAVYYCAREGIVATITLDYWGQGTLVTVSS
VL: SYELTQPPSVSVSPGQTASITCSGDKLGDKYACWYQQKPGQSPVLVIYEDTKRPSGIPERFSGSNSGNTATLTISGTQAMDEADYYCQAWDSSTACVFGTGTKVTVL
B4: antibody 342 (antibody, V domains shown)
VH: EVQLVQSGAEVKKPGATVKISCKVSGYTFTDYYMHWVQQAPGKGLEWMGLVDPEDGETIYAEKFQGRVTITADTSTDTAYMELSSLRSEDTAVYYCATGGVSVWFREFPASYSGSYLGYWGQGTLVTVSS
VL: not shown
B5: antibody 333 (antibody, V domains shown)
VH: QVHLVESGGGVVLPGRSLRLSCSASQFIFSNYDMHWVRQSPGMGLEWVAGISSDGSDKYYIDSVRGRFTISRDNAKNTLFLQMNSLTTEDTAVYSCAKGGGKFGQYWGRGTLVTVSS
VL: AIQMTQSPSSLSASVGDRVTITCRASQVIRNDLAWFQQKPGEAPNLLVYSASNLQSGVPSRFSGSGSGTDFTLTISSLQPEDFATYYCLQDYSYPYTFGQGTKLDMK
B6: antibody 340 (antibody, V domains shown)
VH: QVQLVQSGAEVKKPGASVKVSCKASGYTFTSYDINWVRQATGQGLEWMGWMNPNSGNTGYAQKFQGRVTMTRNTSISTAYMELSSLRSEDTAVYYCARGRYCTGGVCWGDWYFDLWGRGTLVTVSS
VL: QSVLTQPPSVSGAPGQRVTISCTGSSSNIGAGYDVHWYQQLPGTAPKFLIYGNSNRPSGVPDRFSGSKSGTSASLAITGLQAEDEADYYCQSYDSSLSGPVFGGGTKLTVL
B7: antibody 343 (antibody, V domains shown)
VH: QVQLVESGGDVVQPGTSLRLSCAASGFTFNNYGFHWVRQAPGKGLEWVALISSDGASTHYADSVKGRFTISRDSSVNTLYLQMNSLSLEDTAVYYCATGHCGTTCYYFDYWGQGTLVSVSS
VL: DIQVTQSPSYLSASVGDRVTITCRASQTISTFLQWYQQKVGKAPKLLIYAASTLQSGVPSRFSGSGSGTDFSLTISSLQPEDFATYYCQQSYSAPLSFGGGTKVEIK
B8: antibody 324 (antibody, V domains shown)
VH: QVQLQESGPGLVKPSGTLSLTCAVSGGSISSSNWWSWVRQPPGKGLEWIGEIYHSGSTNYNPSLKSRVTISVDNSKNQFSLKLSSVTAADTAVYYCARESVAAAGISYYYYGMDVWGQGTTVTVSS
VL: EIVLTQSPGTLSLSPGERATLSCRASQSVSGRYLAWYQQKPGQAPRLLIYGASSRATGIPDRFSGSGSGTDFTLTISRLEPEDFAVYYCQHYGSSPGTFGQGTRLEIK
B9: antibody 328 (antibody, V domains shown)
VH: B8 VH
VL: DIQMTQSPSSLSASVGDRVTITCRASQGIRNDLGWYQQKPGKAPKRLIYAASSLQSGVPSRFSGSGSGTEFTLTVSGLQPEDFATYYCLQYNSSPLTFGGGTKVEIK
B10: antibody 367 (antibody, V domains shown)
VH: QVQLVQSGAEVKKPGASVKVSCKASGYTFTGYYIHWVRQAPGQGLEWMGWINPNSGGTIYAQKFQGRVTMTRDTSISTAYMELSRLTSDDTAVYSCAREPYYDILTGYYAPRRYFDYWGQGTLVTVSS
VL: QSALTQPASVSGSPGQSITISCTGTSSDVGSYNYVSWYLQHPGKAPKLMIYDVSNRPSGVSNRFSGSKSGNTASLTISGLQAEDEADFYCSSYTSRSTYVFGTGTKVTVL
B11: antibody 379 (antibody, V domains shown)
VH: QVQLQESGPGLVKPSQTLSLTCTVSGGSISSGGYYWSWIRQHPGKGLEWIGYIYYSGSTYYNPSLKSRVTISVDTSKNQFSLKLSSVTAADTAVYYCARGPLDFWSGYFRLRYFDSWGQGTLVTVSS
VL: B10 VL with S31G, L39Q, S54T, F88Y, R96S, Y99C
B12: antibody 337 (antibody, V domains shown)
VH: QVQLVESGGGVVQPGRSLRLSCAASGFTFSSYGMHWVRQAPGKGLEWVAIIWYDGSNKYYADSVKGRFTISRDNSKNTLYLQMNSLRAEDTAVYYCAKDTGGYCSGGSCYPESYFDYWGQGTLVTVSS
VL: SYVLTQPPSVSVAPGKTARITCGGNNIGSKSVHWYQQKPGQAPVLVIYYDSDRPSGIPERFSGSNSGNTATLTINRVEAGDEADYYCQVWDGSSDHLYVFGTGTKVTVL
B13: antibody 366 (antibody, V domains shown)
VH: QVQLVESGGGVVQPGRSLRLSCAASGFTFSSYAMHWVRQAPGKGLEWVAVISYDGSNKYYADSVKGRFTISRDNSKNTLYLQMNSLRAEDTAVYYCARGLVGYNWFDPWGQGTLVTVSS
VL: DIQMTQSPSSVSASVGDRVTITCRASQGISSWLAWYQQKPGKAPKLLIYAASSLQSGVPSRFSGSGSGTDFTLTISSLQPEDFATYYCQQANSFTFGPGTKVDIK
B14: antibody 345 (antibody, V domains shown)
VH: QVQLQESGPGLVKPSQTLSLTCTVSGGSISSGDYYWSWIRQPPGKGLEWIGYIYYSGSTYYNPSLKSRVTISVDTSKNQFSLKLSSVTAADTAVYYCARVGMVDNWNFEGNWFDPWGQGTLVTVSS
VL: QSALTQPRSVSGSPGQSVTISCTGTSSDVGGYNYVSWYQQHPGKAPKLMIYDVSKRPSGVPDRFSGSKSGNTASLTISGLQAEDEADYYCCSYAGSVVFGGGTKLTVL
B15: antibody 349 (antibody, V domains shown)
VH: EVQLVQSGAEVKKPGATVKISCKVSGYTFTDYYMHWVQQAPGKGLEWMGLVDPEDGETIYAEKFQGRVTITADTSTDTAYMELSSLRSEDTAVYYCATENKVPTIIAAAGTRDYYYYGMDVWGQGTTVTVSS
VL: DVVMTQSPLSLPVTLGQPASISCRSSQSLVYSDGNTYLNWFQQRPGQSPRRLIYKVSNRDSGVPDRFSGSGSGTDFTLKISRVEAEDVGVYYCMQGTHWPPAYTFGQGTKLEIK
B16: antibody 351 (antibody, V domains shown)
VH: HVQLVESGGGVVQPGRSLRLSCAASGFISRNYGMEWVRQAPGQGLEWVAGIWYDGSKKYYADSVKGRFTISRDTSKNTLFLQMDSLRAEDTAVFYCATATKTFCGGDCPPGGMDVWGQGTTVTVST
VL: SYVLTQPPSVSVAPGKTAWITCVGNNIESESVHWYQQRPGQAPVLVIYYDSDRPSGIPERFFGSNSGNTATLTISRVEAGDEADYYCQVWDSNSDLMVFGGGTKLTVL
B17: antibody 323 (antibody, V domains shown)
VH: QVQLVQSGAEVKKPGASVKVSCKVSGYTLTELSMHWVRQAPGKGLEWMGGFDPEDGETIYAQKFQGRVTMTEDTSTDTAYMELSSLRSEDTAVYYCATSTIFAPGGWFDPWGQGTLVTVSS
VL: QSALTQPASVSGSPGQSITISCTGTSSDVGSYNLVSWYQQHPGKAPKLMIYEVSKRPSGVSNRFSGSKSGNTASLTISGLQAEDEADYYCCSYAGSTHYVFGTGTKVTVL
B18: antibody 363 (antibody, V domains shown)
VH: EVQLLESGGGLVQPGGSLRLSCAASGFTFSTYAMSWVRQAPGKGLEWVSAISGSGGSTYYADSVKGRFTISRDNSKNTLYLQMNSLRAEDTAVYYCASGYSPDYWGQGTLVTVSS
VL: not shown
B19: antibody 320 (antibody, V domains shown)
VH: QVQLVQSGAEVKKPGASVKVSCKASGYTFTSYGISWVRQAPGQGLEWMGWISAYNGNTNYAQKLQGRVTMTTDTSTRTAYMELRSLRSDDTAVYYCARVGCYYDSSGYSCAENFQHWGQGTLVTVSS
VL: QSVLTQPPSVSGAPGQRVTISCTGSSSNIGAGYDVHWYQQLPGTAPKLLIYGNSNRPSGVPDRFSGSKSGTSASLAITGLQAEDEADYYCQSYDSSLSALFGGGTKLTVL
B20: antibody 331 (antibody, V domains shown)
V domain 1: QITLKESGPTLVKPTETLTLTCSFSGFSLTKTGEAAGWIRQAPGRALEWVTVIFWDDDKRYSPSLQNRISVTKDTSKNQVVLRMTNVARFDTGTYFCWAMGGPGKEYFGQGTLVAVSS
V domain 2: QSVLTQPPSVSGAPGQRVTISCTGTSSSIGPYSDVHWYQHVSGKAPRLLIFGNSNRPSGVPDRFSGSKSGTSASLVIAGLQAEDEADYYCQSYDSSLGEIYVFGTGTTVTVL
B21: antibody 368 (antibody, V domains shown)
V domain 1: QITLKESGPTLVKPTETLTLTCAFSGFSLTKTGEAAGWIRQAPGRALEWVTVIFWDDDKRYSPSLQNRLTVTKDTSKNVVVLTMTNVDPVDTATYFCWAMGGPGKEFFGQGTRVAVSS
V domain 2: B20 V domain 2 with I20V, V41I, S42P, N53T, D62A, T71S
B22: antibody 339 (antibody, V domains shown)
V domain 1: B20 V domain 1 with K31R, N67S, I69L, S70T, R83T, G93A, L113Q
V domain 2: B20 V domain 2
B23: antibody 332 (antibody, V domains shown)
VH: QVTLRESGPALVKPTQTLTLTCTFSGFSLSTSGMCVSWIRQPPGKALEWLALIDWDDDKYYSTSLKTRLTISKDTSKNQVVLTMTNMDPVDTATYYCARIHDDILTGYHYVDYWGQGTLVTVSS
VL: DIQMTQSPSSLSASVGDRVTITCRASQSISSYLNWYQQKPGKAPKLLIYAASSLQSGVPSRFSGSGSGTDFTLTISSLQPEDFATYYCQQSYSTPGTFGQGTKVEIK

Biological target: SARS-CoV Spike protein (SARS-CoV, UniProt P59594 14-1190)

| Binder | bead binding signal (median fluorescence, fold over isotype control) [fold over isotype control] |
| --- | --- |
| B1 | 1.16 |
| B2 | 1.08 |
| B3 | 2.46 |
| B4 | 1.16 |
| B5 | 1.21 |
| B6 | 1.26 |
| B7 | 1.19 |
| B8 | 1.14 |
| B9 | 1.22 |
| B10 | 1.08 |
| B11 | 5.9 |
| B12 | 439 |
| B13 | 1.23 |
| B14 | 1.09 |
| B15 | 1.12 |
| B16 | 1.08 |
| B17 | 1.29 |
| B18 | 1.09 |
| B19 | 989 |
| B20 | 1.34 |
| B21 | 1.09 |
| B22 | 1.27 |
| B23 | 0.99 |
